Laboratory results taken from PMC9908077.

Tests used:
Test in all cases: cross-linking; 1 mM BMH (cysteine-specific) added to living transfected HEK293T cells in PBS/5 mM EDTA, 1 hr at room temperature in the dark, stopped with DTT; lysates on 3-8% Tris-Acetate gels, western blot with anti-NC antibody
[1] = target: CANC (N-terminally 3xHA-tagged CANC Gag fragment with the C-terminal SP2-p6 extension, from pCANC) (HIV-1 NL4-3)
[2] = target: GCN4pAA-SP1-NC (HIV-1 NL4-3)
[3] = target: GCN4pII-SP1-NC (HIV-1 NL4-3)
[4] = target: ccHex2-SP1-NC (HIV-1 NL4-3)

CANC (N-terminally 3xHA-tagged CANC Gag fragment with the C-terminal SP2-p6 extension, from pCANC) (domain or fragment)
stoichiometry N [1]: 8 to 10

GCN4pAA-SP1-NC
stoichiometry N [2]: < 6

GCN4pII-SP1-NC
stoichiometry N [3]: < 6

ccHex2-SP1-NC
stoichiometry N [4]: < 6
